Laboratory results: US20250250350A1

How the values were obtained:
ALPG-AF647 (human) = ALPG-AF647 (human) (UniProt P10696); assay: flow cytometry, lentivirally transduced primary T cells without PrimeR, stained with ALPG-AF647 (PrimeR axis) and MSLN-Bio / streptavidin-PE (CAR axis)
MSLN-Bio (human) = MSLN-Bio (human) (UniProt Q13421); assay: flow cytometry, lentivirally transduced primary T cells, stained with ALPG-AF647 (PrimeR axis) and MSLN-Bio / streptavidin-PE (CAR axis)
MSLN-Bio (human), sequence (Q13421 other isoform, or with tags, fused parts or gaps limits assumed): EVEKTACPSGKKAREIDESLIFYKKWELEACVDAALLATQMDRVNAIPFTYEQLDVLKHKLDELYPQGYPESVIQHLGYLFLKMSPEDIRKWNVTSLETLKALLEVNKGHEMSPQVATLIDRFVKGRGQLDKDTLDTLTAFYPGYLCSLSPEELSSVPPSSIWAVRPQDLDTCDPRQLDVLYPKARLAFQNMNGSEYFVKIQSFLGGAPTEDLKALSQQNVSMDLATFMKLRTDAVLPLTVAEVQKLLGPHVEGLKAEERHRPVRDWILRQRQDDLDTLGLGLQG

ALPG-AF647 (human), sequence (P10696 20-503 limits assumed): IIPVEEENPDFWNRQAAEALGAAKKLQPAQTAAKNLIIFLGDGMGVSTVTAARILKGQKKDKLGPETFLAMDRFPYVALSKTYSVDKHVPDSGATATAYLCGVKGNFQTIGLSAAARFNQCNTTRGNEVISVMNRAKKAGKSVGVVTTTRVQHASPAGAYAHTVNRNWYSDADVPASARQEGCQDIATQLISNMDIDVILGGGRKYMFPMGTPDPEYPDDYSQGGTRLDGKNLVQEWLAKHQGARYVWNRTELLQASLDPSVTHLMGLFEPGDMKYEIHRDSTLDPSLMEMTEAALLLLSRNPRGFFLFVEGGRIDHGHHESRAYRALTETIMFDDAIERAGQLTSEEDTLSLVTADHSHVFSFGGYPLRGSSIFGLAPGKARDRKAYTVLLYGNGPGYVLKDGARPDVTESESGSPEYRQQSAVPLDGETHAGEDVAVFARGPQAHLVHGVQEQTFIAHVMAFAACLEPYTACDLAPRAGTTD

- % of cells PrimeR+ CAR+ (upper right quadrant) (ALPG-AF647 (human)): 0.59%
- % of cells PrimeR+ CAR- (lower right quadrant) (ALPG-AF647 (human)): 0.079%
- % of cells PrimeR+ CAR+ (upper right quadrant) (MSLN-Bio (human)): 0.59%
- % of cells PrimeR- CAR+ (upper left quadrant) (MSLN-Bio (human)): 59.2%
Substance: SS1 CAR
